Measured values published in FireProtDB.
Where “and” joins values, the source holds several entries; their conditions need not be identical. Identical values can stand only once.

Details: whole UniProt chain shown
[1] = Staphylococcus aureus, pH 7, Thermal, CD, NaPP 0.1 M, reversible: yes
[2] = Staphylococcus aureus, pH 7, Thermal, Fluorescence, NaPP 0.1 M, reversible: yes
[3] = Streptococcus phage Cp-1, pH 7, Thermal, DSC, phosphate 20 mM, reversible: no
[4] = Streptococcus phage Cp-1, pH 7, Thermal, DSC, phosphate 20 mM, transition: 3, reversible: no
[5] = Sulfolobus acidocaldarius (strain ATCC 33909 / DSM 639 / JCM 8929 / NBRC 15157 / NCIMB 11770), pH 7, Thermal, DSC, Acetate 10 mM, reversible: Yes
[6] = Sulfolobus acidocaldarius (strain ATCC 33909 / DSM 639 / JCM 8929 / NBRC 15157 / NCIMB 11770), pH 7, Thermal, DSC, Unknown, reversible: yes
[7] = Sus scrofa, pH 6.5, Thermal, DSC, Sodium phosphate 5 mM, reversible: yes

B1: Tryptophan synthase alpha chain wild type, P00929 (protein)
chain: MERYENLFAQLNDRREGAFVPFVTLGDPGIEQSLKIIDTLIDAGADALELGVPFSDPLADGPTIQNANLRAFAAGVTPAQCFEMLALIREKHPTIPIGLLMYANLVFNNGIDAFYARCEQVGVDSVLVADVPVEESAPFRQAALRHNIAPIFICPPNADDDLLRQVASYGRGYTYLLSRSGVTGAENRGALPLHHLIEKLKEYHAAPALQGFGISSPEQVSAAVRAGAAGAISGSAIVKIIEKNLASPKQMLAELRSFVSAMKAASRA
Work on B1 yielded an unfolding free energy (Salmonella typhimurium (strain LT2 / SGSC1412 / ATCC 700720), pH 7, 25 °C, GdnHCl, CD, Potassium phosphate 0.01 M, reversible: yes) of 9.7 kcal/mol, a Tm (Salmonella typhimurium (strain LT2 / SGSC1412 / ATCC 700720), pH 7.8, Thermal, Enzyme activity, sodium N/N-bis(2-hydroxyethyl)glycine 0.05 M) of 46 °C and a Tm (Salmonella typhimurium (strain LT2 / SGSC1412 / ATCC 700720), pH 9, Thermal, DSC, Sodium tetraborate 1 mM, reversible: yes(>70%)) of 47.6 °C.

B2: Dihydroneopterin aldolase wild type, P56740 (protein)
chain: MQDTIFLKGMRFYGYHGALSAENEIGQIFKVDVTLKVDLSEAGRTDNVIDTVHYGEVFEEVKSIMEGKAVNLLEHLAERIANRINSQYNRVMETKVRITKENPPIPGHYDGVGIEIVRENK
With B2 the Tm [1] was 42.5 °C, the “unfolding enthalpy (van 't Hoff)” value [1] was 141 kcal/mol and the Tm [2] was 43.5 °C. For the same protein, the “unfolding enthalpy (van 't Hoff)” value [2] was 151 kcal/mol.

B3: Lysozyme wild type, P15057 (protein)
chain: MVKKNDLFVDVSSHNGYDITGILEQMGTTNTIIKISESTTYLNPCLSAQVEQSNPIGFYHFARFGGDVAEAEREAQFFLDNVPMQVKYLVLDYEDDPSGDAQANTNACLRFMQMIADAGYKPIYYSYKPFTHDNVDYQQILAQFPNSLWIAGYGLNDGTANFEYFPSMDGIRWWQYSSNPFDKNIVLLDDEEDDKPKTAGTWKQDSKGWWFRRNNGSFPYNKWEKIGGVWYYFDSKGYCLTSEWLKDNEKWYYLKDNGAMATGWVLVGSEWYYMDDSGAMVTGWVKYKNNWYYMTNERGNMVSNEFIKSGKGWYFMNTNGELADNPSFTKEPDGLITVA
With B3 the Tm [3] was 42.9 °C, the “unfolding enthalpy (calorimetric)” value [3] was 109 kcal/mol and the “unfolding enthalpy (van 't Hoff)” value [3] was 232 kcal/mol. The Tm [4] was 43.5 °C, the “unfolding enthalpy (calorimetric)” value [4] was 143 kcal/mol and the “unfolding enthalpy (van 't Hoff)” value [4] was 100 kcal/mol.

B4: Subtilisin inhibitor wild type, P01006 (protein)
chain: MRNTGAGPSPSVSRPPPSAAPLSGAALAAPGDAPSALYAPSALVLTVGKGVSATTAAPERAVTLTCAPGPSGTHPAAGSACADLAAVGGDLNALTRGEDVMCPMVYDPVLLTVDGVWQGKRVSYERVFSNECEMNAHGSSVFAF
With B4 the Tm (Streptomyces albogriseolus, pH 2.45, Thermal, CD, glycine 25 mM, reversible: yes) was 21.6 °C, the Tm (Streptomyces albogriseolus, pH 2.72, Thermal, CD, glycine 25 mM, reversible: yes) was 31.6 °C and the Tm (Streptomyces albogriseolus, pH 2.87, Thermal, CD, glycine 25 mM, reversible: yes) was 35.7 °C. It also gave an unfolding free energy (Streptomyces albogriseolus, pH 3.21, 20 °C, Thermal, CD, glycine 25 mM, reversible: yes) of 4.07 kcal/mol and a Tm (Streptomyces albogriseolus, pH 3.21, Thermal, CD, glycine 25 mM, reversible: yes) of 45.8 °C.

B5: DNA-binding protein 7d wild type, P13123 (protein)
chain: MVKVKFKYKGEEKEVDTSKIKKVWRVGKMVSFTYDDNGKTGRGAVSEKDAPKELLDMLARAEREKK
In the case of B5, the Tm (Sulfolobus acidocaldarius (strain ATCC 33909 / DSM 639 / JCM 8929 / NBRC 15157 / NCIMB 11770), pH 4, Thermal, DSC, Potassium acetate 0.05 M, KCl 0.3 M, reversible: yes) is reported as 86.8 °C, the Tm (Sulfolobus acidocaldarius (strain ATCC 33909 / DSM 639 / JCM 8929 / NBRC 15157 / NCIMB 11770), pH 6, Thermal, DSC, KH2PO4 0.01 M, KCl 0.1 M, reversible: yes) is reported as 99.4 °C and the Tm [5] is reported as 90.7 °C. The “heat capacity change of unfolding” value [5] was 0.71 kcal/mol/K, the “unfolding enthalpy (calorimetric)” value [5] was 58.5 kcal/mol and the Tm [6] was 90.7 °C. For the same protein, the “heat capacity change of unfolding” value [6] was 0.71 kcal/mol/K and the “unfolding enthalpy (calorimetric)” value [6] was 58.5 kcal/mol.

B6: Glutathione S-transferase P wild type, P80031 (protein)
chain: PPYTITYFPVRGRCEAMRMLLADQDQSWKEEVVTMETWPPLKPSCLFRQLPKFQDGDLTLYQSNAILRHLGRSFGLYGKDQKEAALVDMVNDGVEDLRCKYATLIYTNYEAGKEKYVKELPEHLKPFETLLSQNQGGQAFVVGSQISFADYNLLDLLRIHQVLNPSCLDAFPLLSAYVARLSARPKIKAFLASPEHVNRPINGNGKN
In the case of B6, the unfolding free energy (Sus scrofa, pH 6.5, 20 °C, GdnHCl, CD, Mes-NaOH 20 mM, NaCl 0.1 M) is reported as 11.6 kcal/mol and 22.5 kcal/mol.

B7: Gastricsin wild type, P30879 (protein)
chain: SVIKVPLKKLKSIRQAMKEKGLLEEFLKTHKYDPAQRYRIGDISVALEPMAYLEAAYFGEISIGTPPQNFLVL
For B7, the Tm [7] was 64.5 °C, the “heat capacity change of unfolding” value [7] was 6.1 kcal/mol/K and the “unfolding enthalpy (calorimetric)” value [7] was 256 kcal/mol. For the same protein, the “unfolding enthalpy (van 't Hoff)” value [7] was 131 kcal/mol.
